This assay concerns the target hStau1^55 SSM/RBD5 construct (human). Kind of assay: SEC.

For the substance “hStau1^55 SSM/RBD5 construct (domain or fragment)”, the stoichiometry N amounted to 2.
